Reference: paper PMC3935622

Target: S. Typhimurium CueP C172S mutant (S. Typhimurium)
Experiment: SEC

## S. Typhimurium CueP C172S mutant (natural protein)
  stoichiometry N: 4
